Experimental data as given in the supplement of paper PMC12636428.

System: Saccharomyces cerevisiae
Assay: transcriptional activation domain activity (GFP:mCherry ratio, weighted mean of sorted bins, harmonized to initial dataset scale) (arbitrary fluorescence ratio units); higher = stronger transcriptional activation
Details: beta-estradiol 1 µM; induction time 4 h
In short: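 Activation activity, the read-weighted mean of bin median fluorescence averaged across barcodes, was linearly mapped onto the scale of the initial dataset. It was measured for barcoded protein tiles fused to an estradiol-inducible synthetic transcription factor at URA3 in GFP-reporter yeast diploids. Cultures diluted 1:5 into SC with 1 uM beta-estradiol were held 4 hours at 30 °C, sorted into 8 bins by GFP:mCherry ratio, and barcode-sequenced, and tiles under 50 reads were discarded.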

| Sequence | transcriptional activation domain activity |
| --- | --- |
| EPESKPAPARGAQPAQRGNFRGGRGGHRGARGGRGRGGYQERPRRQEEEKPTK | 9620 |
| WYWLATTMYFLYGESVIYYFKHVVLVDKVLLPLATHHRFISFMLYIIGFVFFV | 60400 |
| IVQLHLKIHGAWLGRIRCDHCPKFHIEKFCWAACGGPQGLRRIIEHYLKVLNW | 39000 |
| LTWDVFKLALFFCLFQDISFSFCTFLLCFFLICFAYIVYPLSLSLLNGVLFDP | 44900 |
| NLCELIYLDRLCGCCLFSMRSVVFIDLLSTLIQPVTVVYIVYLIYLVAANGAT | 28000 |
| MLYLYPLYLGYYLFLFLSISRLEKFLHIGSLITCLPRLVSLEIRLTLCLYYHL | 80100 |
| FLGTAMYFLYGESVIYYFKHILLVDRILLPLATHHRFISFMLYIIGFVFFVFS | 51000 |
| MCCEAEWKREVVQDHKFDFINVSEFHRTDILTRLKYVWKYILILKAFAVMGLD | 53700 |
| MHRATNYYFSFSALLYLVFIFLRCSLALGLFFCFMFLSFEFFCFLMVLCLFCI | 33200 |
| RILATQFFYVAAFTFLVFHSAFRAARITLPLYQHPLRIAIPVTLTQMGLHATA | 64600 |
| CEMQFAKDTVVRRYCLLLECLELLPVSAIKAVTRMLHRIVVKCGCVAMFFKMS | 70400 |
| LQKTVNLKNIMKVSDPYVPTRNTFNYDVKISNDFFDNGDNLYGNDEEVLFYED | 61500 |
| ASASASASRHKKDKDRKKKHKEKDGKSSKHKKHKSSSRRSRSRSRDKDRHGDR | 33300 |
| FTYMDRLQLIQAPFPWRDRMALTAITEFVATYYQNMHVDITVTMRKLGYLEKL | 60800 |
| IIKSLVGCLFFVLCPIVLVHSTSCYPRILYPLSYLLFLFWVPHLLFACRVTFT | 56400 |
| LYFLLLLSPLCIGLVSVLCCHIGFIFLFLFFLLQSYQVSYLLLFMYIRFFLCM | 42300 |
| VRWIRVRKHIVMAATLAEPFTESIVLVVIGSSSLKYLVGLPRWLCILVHFFLL | 35900 |
| EAEDAPAAAVSIEEDAPVKEVEAPAPEPEVLEPEKPKEPSPTPVAAATKPAAP | 49100 |
| MDDDIAMFDSLATTQPIDIAASNQQNGEIAQLWDFNVDQFNMTPSNSSGSATI | 76100 |
| PLPSPPSLPLPSPPSHSLLPLFLPFLPSLCSSLSILFPPLLLSHCPCFSFFLS | 63500 |
| PYQSSVDVLPRPLPVLRWTWVIVGISCFYFWCVSIPAPFLLFRICFPHFNLLT | 50500 |
| GFFFAIACLFICQGWMLGGDQSIKSISLGGGFLCLFFFSLFSFLFASWCVWLC | 38700 |
| DQDAVMEDAPEANAETESQNSRRRRSRGKGRKSGASMAENVKVEQQAEAGSEN | 29300 |
| MREYIRFYFDTLHSSRVFVVWLLTHVLFLEKDRLKAMFAKDEFNGIEEIKMRY | 24900 |
| MPILMQFCFIMALNGICNSMHLYAAYNLRTHVLARVFWSILWLLLRSLCSAGW | 70700 |

| Sequence | transcriptional activation domain activity |
| --- | --- |
| AGSSTFRDKGKGRASDAGPVSRTGDNEGGEESAGEGNQREKKRVKKEVKKAPR | 20300 |
| FTFILMMACLVSGIGWCLLYFTCMYLLLIYYILSLFYPPLASCNSFSFFFSFV | 64100 |
| MKRSAAALVSYPSSDEETSEAQAKSEPIKKKKKLPQLSSSLVVPVPVDNPALH | 41300 |
| NLSPLVLPLWVQLNIYFGIVFLWILAPLVFYYNVWNAQSFPFLSNSIFQLLPN | 64600 |
| MKIHECTGVVYIGNVLCHKQPQVLLGLMFFMDLTLFFLDSYLWYIICNTIFSV | 68700 |
| LRQRILYIYKWFLRKIYPSINAAYYLSILSFSLMYLFDNTKYSNPFLWLIHTR | 63900 |
| MFRLLEESFRYEPFVTFGLAVFACYFALIALNVVYYYYLFHFLWFCSYAFLAL | 51600 |
| SDEEEKPKPKQGKKKAKAPKKEEEFEGEPEEEEKPKPKKTNGRKKAVKAEEED | 36300 |
| AVRLLSTKKISMSQANIGQTYFAHYCLSLLRLARYALSTMIKMFGPVYGWWLF | 64300 |
| LARFACLTCDHNWLEDLIFGATDAIEEAFFANDITCLVFWLYNTTLWLHLMQC | 51400 |
| CNVLCYGYNVVLLVMKLYVKRVFVSPRGVRQPLVLAPYEHTLYIRFSCQPITD | 29300 |
| GHLLVVSISIIIKAMHGCLYCPIFMYVTTYGYYLWIASFIWRAYYLRFQLTLH | 43600 |
| MLGKGRIMEYLLTFVWGFGVHILIFYLSCTGVIMGFLLIYTYSTFCFCFHHYV | 67600 |
| AMPTFDLVMWYREFQRILLEMRAYVIYKATVLPRWSNPSYDRPFPVLPVRGVI | 48600 |
| EEKKEDDWQVLDGKEKAAGGAGEGDAAEGAEGGATTEGEKKDDAGGAPAGEGA | < 6570 |
| GEEGKAEEAAGEEGKAEAEAGAESEKSAEGEGEASAEEGASGEEAAGEKAAGE | 26800 |
| YLSFLGIGVTFYTFLLLFFFLEDLEDFLVFFEGVLMIFLKLFIVFWTSLLVFL | 62000 |
| LMLCAGHGILIALVEQSGIDIKPILVFCLITYTLCQIGMCYSCYLYDFILLFF | 50100 |
| AFLVGGGSAFWVLGYGLFYWASRLSLDSFTSVMLYLGYLLLLVLLVFLVTGTI | 42700 |
| MFFILASFSYYYYTHHISLDKVGNFLCRFIHPVFLCSIFIFPFLLYLFKIIYY | 39100 |
| VRSTRRSLYFWSCLTCSWGIIIHLLFILLLNFKIFENYGALVVVHFTWCIYVV | 63300 |
| LWNSYLQSMDDTTGKNSGNYQQVDNDDNMSLLNLPILEETVSSGQDDKVEPDE | 54600 |
| NFIIQGNSMISTPSGRNDLPDTSPMSSIQTASPPSQLLTDQGFADLDNFMSSL | 74500 |
| FFLKVYLLNPMHMTRFADLLYQGAILNRVFQPYESHLQYLLQWMCDYNLYGCA | 46700 |
| SSAASAGGEGEGKDGKRKKDGQEEEEEEDKGSKKVKKNDGGAKQTKEGAKTSD | < 6570 |

| Sequence | transcriptional activation domain activity |
| --- | --- |
| DQIYIYQTPRWLCYECLVAMFTMFTIRLVYFWSLHVLNHLLTYKTFLFFFLSC | 47400 |
| KNNNREVEVEAREPHHKGRKNNKREVGEVEARDPHHKGRKNNKREVEVEAREP | 52900 |
| PFSFSNTDLTALFTHPEGPNCTNTNNGNVDVCNRASTDATDANIENLSFLNMA | 116000 |
| SNPKELFFIRILLDLSWIDMRVAICSLRPILGEEPRKFREMLLVLPTLCSEIY | 66100 |
| MVFFLYISLLIFFFTATIAALPCMVWWILAVHCWLFIFLDPLAFFYYSFFPFF | 26300 |
| IHCLDSLFLLYMLTIFYLLWYSSLIFPLWCMISLYYFIVLSSTSLLGLSFISL | 71500 |
| HKWIIPTPFASHAFHPVDGYLQSVPYHLFVFIFPLHRILYLVLFVLINFWTIF | 62300 |
| MGFLFLLCVLVVWVFFRAWFFCFLFFLFLFLVLLFRYLFIYFLWSWYGGGSVG | 48000 |
| MCVVFFPVLLLWRLLFRSFSFLPVCIVSPVTRFFFLSFFPSQSIVSNSFILPA | 29800 |
| AAINGSANGKRRRTKEDGGEKADGRAGPKSENVVLQKTIEHIHGLLQHKSVLL | 45900 |
| LHLCLQVTKAYLERFHKFDPADITVCCSSVMFHFACAMKVLYRLLLLDDPGWD | 59900 |
| VISDSEDEKPPAKKAKTEEKAEKEEAKEDPEAKAKAVKEKEEAALKLATTRIL | 40700 |
| DPFVEQNNDITTALLNNELFQGPSLSDEVTDWFGASEDIGLEFVEPWTELIEQ | 144000 |
| QASPEAAKAEGEKASPEAAKAEGEAQPAEGQKEGEAAKAEGEAAAAEAGAGAG | 27600 |
| RLSASKIYIWCSGGVVFAIVLALQVLVLLALLNVITCLEGHMLSIHGWPRGEC | 31100 |
| DTKLIAISDANELKGFDSQCIEEWDPILFSAAEIWPTKGKPIALVEMDPIDFD | 145000 |
| MCRFFIFLLSFLYDISVPILVFWSVHSPLLGWLFPGGGYTWRCLFFLCFLVYM | 51400 |
| PLLLKGLQFTMAEEKTWSLLRQIMLLDNLPLIDPAPTRFMYLLLGAIPRLLNG | 49700 |
| PLLTLNGLNCFFSLIYLINLLYSLKLFLQYFFFCLPFHIFILLMHSFLYYIFY | 62400 |
| EQSGNGDINNGTRNDIEINLYRSHPTMIMSKVMKREVKPLSENYIIIQDCFLK | 62500 |
| ADEEPTSSLYRSNAKEVSRITTGSCSEIKNKLAGMQLGHNKQVSICSSGLCVP | 72000 |
| MVAVVEVWVGEGVGEFWHLVKVWEGFLKLEYPVFFFDVWFFYDPFFCALGFFI | 79300 |
| MRRLKFGFFPPHFAGFFLSVVLHIIIVYNLWVPFVLLFLLISFLSFLSCIQSF | 54200 |
| FCQISGFSLAVGIESSDIAVLLIALHSVMYIFSPLSGLYPYRQLAYLVYYLFP | 49400 |
